Assay results as given in article PMC12021427.

Biological target: PS2 S-layer protein of Corynebacterium glutamicum 541 (ATCC-13058) (Corynebacterium glutamicum 541 (ATCC-13058))
Assay: cryo-EM structure; single particle cryo-EM of S-layer sheets purified from cells with SDS; 50 mM HEPES/NaOH pH 7.5, 150 mM NaCl, 1 mM MgCl2, 2 mM CaCl2; C6 symmetry; 3.1 Å; lattices still intact after 10 mM EDTA or 10 mM EGTA for 2 h

- stoichiometry N: 6
Substance: PS2 S-layer protein of Corynebacterium glutamicum 541 (ATCC-13058) (natural protein)
